From FireProtDB (doi:10.1021/bi801431x)
Several values for one entry are separate records, joined by “and”; a condition that tells them apart may be missing. Equal entries are not always repeated.

Conditions: Escherichia coli (strain K12); pH 7.5; 25 °C; Urea; Fluorescence; Potassium phosphate 20 mM; reversible: Yes; whole UniProt chain shown

B1: Aspartate aminotransferase wild type, P00509 (protein)
chain: MFENITAAPADPILGLADLFRADERPGKINLGIGVYKDETGKTPVLTSVKKAEQYLLENETTKNYLGIDGIPEFGRCTQELLFGKGSALINDKRARTAQTPGGTGALRVAADFLAKNTSVKRVWVSNPSWPNHKSVFNSAGLEVREYAYYDAENHTLDFDALINSLNEAQAGDVVLFHGCCHNPTGIDPTLEQWQTLAQLSVEKGWLPLFDFAYQGFARGLEEDAEGLRAFAAMHKELIVASSYSKNFGLYNERVGACTLVAADSETVDRAFSQMKAAIRANYSNPPAHGASVVATILSNDALRAIWEQELTDMRQRIQRMRQLFVNTLQEKGANRDFSFIIKQNGMFSFSGLTKEQVLRLREEFGVYAVASGRVNVAGMTPDNMAPLCEAIVAVL
- denaturant midpoint (higher = more stable): 3.89 M and 5.02 M
